From patent US10808017B2, “Ubiquitin variants and uses therof as 53BP1 inhibitors” (The Governing Council of the University of Toronto, priority 2016, dated 2020) come the findings set out here.

The target in one assay is T1, ARFGAP2 (Homo sapiens, UniProt Q8N6H7).
T1 construct: endogenous in cells; host or cells: HEK293 Flp-In/T-REx
The assay is described as follows: Flag IP-MS of i53/i53-DM baits: prey ARFGAP2. Type of assay: binding. The conditions noted are these: 293T Flp-In/T-Rex extracts, LC-MS/MS, one column per replicate IP. The protocol: (§1) Following immunoprecipitation of Flag-tagged i53 and i-53-DM from HEK293 Flp-In/T-REx cells, peptides were identified using LC-MS/MS. Proteins were digested in solution with trypsin (Sigma, T7575-1KT) and dried to completeness. For LC-MS/MS analysis, peptides were reconstituted in 5% formic acid and loaded onto a 12-15 cm fused silica column with pulled tip packed in-house with 3.5 μm Zorbax C18 (Agilent Technologies, Calif., USA).
(§2) i53 and i53-DM precipitates were analyzed using an LTQ (Thermo Scientific) coupled to an Agilent 1100 Series HPLC (Agilent Technologies). Peptides were eluted from the column using a 90 min period cycle with a linear gradient from 0% to 40% ACN in 0.1% formic acid. Tandem MS spectra were acquired in a data-dependent mode for the top 5 (LTQ) most abundant ions using collision-induced dissociation. Acquired spectra were searched against the human Refseq_V53 database using Mascot (Matrix Science).
(§3) 293T Flp-In/T-Rex cell lines were generated that expressed Flag-tagged i53 or i53-DM under the control of a tetracycline-inducible promoter as previously described. Nine IP-MS experiments were analyzed (3 biological replicate IPs each for control i53- and i53-DM expressing cell lines). The interacting proteins were identified by MASCOT to identify high-confidence interactors for i53. […]

In the next assay the target is T2, HIST2H2BE (Homo sapiens, UniProt Q16778).
T2 construct: endogenous in cells; host or cells: HEK293 Flp-In/T-REx cells
The assay is described as follows: Flag IP-MS of i53/i53-DM baits: prey HIST2H2BE. Type of assay: binding. To be noted: 293T Flp-In/T-Rex extracts, LC-MS/MS, one column per replicate IP. The protocol: as §1, §2, §3

The target of another assay is T3, RERGL (Homo sapiens, UniProt Q9H628).
T3 construct: endogenous in cells; host or cells: HEK293 Flp-In/T-REx cells
T3 sequence (Q9H628 1-204): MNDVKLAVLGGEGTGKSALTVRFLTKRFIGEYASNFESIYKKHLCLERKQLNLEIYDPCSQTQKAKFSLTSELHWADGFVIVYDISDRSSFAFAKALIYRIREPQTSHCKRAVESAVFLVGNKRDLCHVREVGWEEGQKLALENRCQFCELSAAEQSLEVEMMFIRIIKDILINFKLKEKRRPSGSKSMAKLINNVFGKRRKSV
The assay is described as follows: Flag IP-MS of i53/i53-DM baits: prey RERGL. Type of assay: binding. The conditions noted are these: 293T Flp-In/T-Rex extracts, LC-MS/MS, one column per replicate IP. The protocol:
as §1, §2, §3

For the next assay, the target named is T4, MGA (Homo sapiens, UniProt Q8IWI9).
T4 construct: endogenous in cells; host or cells: HEK293 Flp-In/T-REx cells
The assay is described as follows: Flag IP-MS of i53/i53-DM baits: prey MGA. To be noted: 293T Flp-In/T-Rex extracts, LC-MS/MS, one column per replicate IP. The assay is classed as binding. The procedure: as §1, §2, §3

In another assay the target is T5, NAP1L1 (Homo sapiens, UniProt P55209).
T5 construct: endogenous in cells; host or cells: HEK293 Flp-In/T-REx
T5 sequence (P55209 1-391): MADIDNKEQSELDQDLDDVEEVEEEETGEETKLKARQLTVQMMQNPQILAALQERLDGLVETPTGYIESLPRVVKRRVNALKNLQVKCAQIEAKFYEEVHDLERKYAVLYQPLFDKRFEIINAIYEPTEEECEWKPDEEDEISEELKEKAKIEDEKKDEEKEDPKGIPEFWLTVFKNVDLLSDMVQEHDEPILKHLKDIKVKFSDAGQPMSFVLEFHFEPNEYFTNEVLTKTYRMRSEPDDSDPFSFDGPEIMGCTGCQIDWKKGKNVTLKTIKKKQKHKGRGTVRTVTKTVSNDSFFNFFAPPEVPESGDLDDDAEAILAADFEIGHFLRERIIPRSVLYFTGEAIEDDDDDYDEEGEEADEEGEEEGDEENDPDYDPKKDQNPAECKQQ
The assay is described as follows: Flag IP-MS of i53/i53-DM baits: prey NAP1L1. Type of assay: binding. The conditions noted are these: 293T Flp-In/T-Rex extracts, LC-MS/MS, one column per replicate IP. The protocol: as §1, §2, §3

Another assay concerns the target T6, CAPZA2 (Homo sapiens, UniProt P47755).
T6 construct: endogenous in cells; host or cells: HEK293 Flp-In/T-REx
As to the kind of experiment: Flag IP-MS of i53/i53-DM baits: prey CAPZA2. Type of assay: binding. To be noted: 293T Flp-In/T-Rex extracts, LC-MS/MS, one column per replicate IP. The protocol:
as §1, §2, §3

The next assay addresses T7, HIST1H2BG (Homo sapiens, UniProt P62807).
T7 construct: endogenous in cells; host or cells: HEK293 Flp-In/T-REx
The assay is described as follows: Flag IP-MS of i53/i53-DM baits: prey HIST1H2BG. Type of assay: binding. To be noted: 293T Flp-In/T-Rex extracts, LC-MS/MS, one column per replicate IP. The procedure:
as §1, §2, §3

The target in assay [1] is T8, 53BP1 recruitment to DSB sites in U2OS cells (Homo sapiens, UniProt Q12888).
T8 construct: endogenous in cells; host or cells: U2OS
As to the kind of experiment: Ionizing radiation focus formation, 53BP1 (immunofluorescence). The assay is classed as cell-based. To be noted: transfected U2OS cells, 10 Gy X-rays, 1 h post-irradiation. The protocol: FIG. 3. The i53 protein inhibits 53BP1. FIG. 3A-B, U2OS cells were transfected with vectors expressing i53, its 53BP1-binding deficient mutant (DM) or an empty vector (EV) control. Cells were then X-irradiated with a 10 Gy dose and processed for immunofluorescence with the indicated antibodies 1 h post-irradiation (IR). DAPI staining (not shown) was used to delineate the outline (dashed lines) of the cell nuclei. The region in the magnified inset is indicated with a square. Quantitation of the experiment is shown in panel (a) and data is indicated as the mean±s.e.m (N=3), whereas in (b) representative micrographs are shown. Arrowheads indicate Flag-positive cells. FIG. 3C, Parental or 53BP1ΔU2OS cells transfected with vectors expressing i53, the DM mutant or an empty vector (EV) control were irradiated (10 Gy) 1 h before being processed for immunofluorescence. Cell cycle stage was assessed by Cyclin A staining. The data is presented as the mean±s.e.m.; N=3. FIG. 3D, Immunoprecipitation (IP) of Flag-tagged proteins from extracts prepared from 293T cells transfected with vectors expressing Flag-i53 or the i53-DM mutant. Proteins were separated by SDS-PAGE and immunoblotted (IB) for Flag and 53BP1. […]

Another assay concerns the target T9, CFL1 (Homo sapiens, UniProt P23528).
T9 construct: endogenous in cells; host or cells: HEK293 Flp-In/T-REx
The assay is described as follows: Flag IP-MS of i53/i53-DM baits: prey CFL1. The assay is classed as binding. The conditions noted are these: 293T Flp-In/T-Rex extracts, LC-MS/MS, one column per replicate IP. The protocol: as §1, §2, §3

Another assay concerns the target T10, 53BP1 (Homo sapiens, UniProt Q12888).
T10 construct: endogenous in cells; host or cells: 293T
The assay is described as follows: Flag co-immunoprecipitation from 293T cells. Type of assay: binding. The conditions noted are these: Flag IP from transfected 293T cell extracts, immunoblot. The protocol:
FIG. 3. The i53 protein inhibits 53BP1. FIG. 3A-B, U2OS cells were transfected with vectors expressing i53, its 53BP1-binding deficient mutant (DM) or an empty vector (EV) control. Cells were then X-irradiated with a 10 Gy dose and processed for immunofluorescence with the indicated antibodies 1 h post-irradiation (IR). DAPI staining (not shown) was used to delineate the outline (dashed lines) of the cell nuclei. The region in the magnified inset is indicated with a square. Quantitation of the experiment is shown in panel (a) and data is indicated as the mean±s.e.m (N=3), whereas in (b) representative micrographs are shown. Arrowheads indicate Flag-positive cells. FIG. 3C, Parental or 53BP1ΔU2OS cells transfected with vectors expressing i53, the DM mutant or an empty vector (EV) control were irradiated (10 Gy) 1 h before being processed for immunofluorescence. Cell cycle stage was assessed by Cyclin A staining. The data is presented as the mean±s.e.m.; N=3. FIG. 3D, Immunoprecipitation (IP) of Flag-tagged proteins from extracts prepared from 293T cells transfected with vectors expressing Flag-i53 or the i53-DM mutant. Proteins were separated by SDS-PAGE and immunoblotted (IB) for Flag and 53BP1.
293T cells were transfected with 10 μg of pcDNA3-Flag-i53-derived plasmids using polyethylenimine (PEI). […]

T1 sequence (Q8N6H7 whole entry): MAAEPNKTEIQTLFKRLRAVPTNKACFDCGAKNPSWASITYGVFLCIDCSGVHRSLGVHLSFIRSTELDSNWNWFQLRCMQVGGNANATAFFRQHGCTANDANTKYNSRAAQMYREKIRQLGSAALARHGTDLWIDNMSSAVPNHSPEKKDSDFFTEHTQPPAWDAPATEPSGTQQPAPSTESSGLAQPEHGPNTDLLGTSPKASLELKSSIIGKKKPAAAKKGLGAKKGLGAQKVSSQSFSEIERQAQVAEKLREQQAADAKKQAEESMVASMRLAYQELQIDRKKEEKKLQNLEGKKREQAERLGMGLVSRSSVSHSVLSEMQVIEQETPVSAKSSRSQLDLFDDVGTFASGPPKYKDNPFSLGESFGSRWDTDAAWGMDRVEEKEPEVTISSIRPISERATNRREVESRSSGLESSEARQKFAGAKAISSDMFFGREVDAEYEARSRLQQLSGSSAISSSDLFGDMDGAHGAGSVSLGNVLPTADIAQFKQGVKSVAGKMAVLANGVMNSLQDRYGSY
T4 sequence (Q8IWI9 whole entry): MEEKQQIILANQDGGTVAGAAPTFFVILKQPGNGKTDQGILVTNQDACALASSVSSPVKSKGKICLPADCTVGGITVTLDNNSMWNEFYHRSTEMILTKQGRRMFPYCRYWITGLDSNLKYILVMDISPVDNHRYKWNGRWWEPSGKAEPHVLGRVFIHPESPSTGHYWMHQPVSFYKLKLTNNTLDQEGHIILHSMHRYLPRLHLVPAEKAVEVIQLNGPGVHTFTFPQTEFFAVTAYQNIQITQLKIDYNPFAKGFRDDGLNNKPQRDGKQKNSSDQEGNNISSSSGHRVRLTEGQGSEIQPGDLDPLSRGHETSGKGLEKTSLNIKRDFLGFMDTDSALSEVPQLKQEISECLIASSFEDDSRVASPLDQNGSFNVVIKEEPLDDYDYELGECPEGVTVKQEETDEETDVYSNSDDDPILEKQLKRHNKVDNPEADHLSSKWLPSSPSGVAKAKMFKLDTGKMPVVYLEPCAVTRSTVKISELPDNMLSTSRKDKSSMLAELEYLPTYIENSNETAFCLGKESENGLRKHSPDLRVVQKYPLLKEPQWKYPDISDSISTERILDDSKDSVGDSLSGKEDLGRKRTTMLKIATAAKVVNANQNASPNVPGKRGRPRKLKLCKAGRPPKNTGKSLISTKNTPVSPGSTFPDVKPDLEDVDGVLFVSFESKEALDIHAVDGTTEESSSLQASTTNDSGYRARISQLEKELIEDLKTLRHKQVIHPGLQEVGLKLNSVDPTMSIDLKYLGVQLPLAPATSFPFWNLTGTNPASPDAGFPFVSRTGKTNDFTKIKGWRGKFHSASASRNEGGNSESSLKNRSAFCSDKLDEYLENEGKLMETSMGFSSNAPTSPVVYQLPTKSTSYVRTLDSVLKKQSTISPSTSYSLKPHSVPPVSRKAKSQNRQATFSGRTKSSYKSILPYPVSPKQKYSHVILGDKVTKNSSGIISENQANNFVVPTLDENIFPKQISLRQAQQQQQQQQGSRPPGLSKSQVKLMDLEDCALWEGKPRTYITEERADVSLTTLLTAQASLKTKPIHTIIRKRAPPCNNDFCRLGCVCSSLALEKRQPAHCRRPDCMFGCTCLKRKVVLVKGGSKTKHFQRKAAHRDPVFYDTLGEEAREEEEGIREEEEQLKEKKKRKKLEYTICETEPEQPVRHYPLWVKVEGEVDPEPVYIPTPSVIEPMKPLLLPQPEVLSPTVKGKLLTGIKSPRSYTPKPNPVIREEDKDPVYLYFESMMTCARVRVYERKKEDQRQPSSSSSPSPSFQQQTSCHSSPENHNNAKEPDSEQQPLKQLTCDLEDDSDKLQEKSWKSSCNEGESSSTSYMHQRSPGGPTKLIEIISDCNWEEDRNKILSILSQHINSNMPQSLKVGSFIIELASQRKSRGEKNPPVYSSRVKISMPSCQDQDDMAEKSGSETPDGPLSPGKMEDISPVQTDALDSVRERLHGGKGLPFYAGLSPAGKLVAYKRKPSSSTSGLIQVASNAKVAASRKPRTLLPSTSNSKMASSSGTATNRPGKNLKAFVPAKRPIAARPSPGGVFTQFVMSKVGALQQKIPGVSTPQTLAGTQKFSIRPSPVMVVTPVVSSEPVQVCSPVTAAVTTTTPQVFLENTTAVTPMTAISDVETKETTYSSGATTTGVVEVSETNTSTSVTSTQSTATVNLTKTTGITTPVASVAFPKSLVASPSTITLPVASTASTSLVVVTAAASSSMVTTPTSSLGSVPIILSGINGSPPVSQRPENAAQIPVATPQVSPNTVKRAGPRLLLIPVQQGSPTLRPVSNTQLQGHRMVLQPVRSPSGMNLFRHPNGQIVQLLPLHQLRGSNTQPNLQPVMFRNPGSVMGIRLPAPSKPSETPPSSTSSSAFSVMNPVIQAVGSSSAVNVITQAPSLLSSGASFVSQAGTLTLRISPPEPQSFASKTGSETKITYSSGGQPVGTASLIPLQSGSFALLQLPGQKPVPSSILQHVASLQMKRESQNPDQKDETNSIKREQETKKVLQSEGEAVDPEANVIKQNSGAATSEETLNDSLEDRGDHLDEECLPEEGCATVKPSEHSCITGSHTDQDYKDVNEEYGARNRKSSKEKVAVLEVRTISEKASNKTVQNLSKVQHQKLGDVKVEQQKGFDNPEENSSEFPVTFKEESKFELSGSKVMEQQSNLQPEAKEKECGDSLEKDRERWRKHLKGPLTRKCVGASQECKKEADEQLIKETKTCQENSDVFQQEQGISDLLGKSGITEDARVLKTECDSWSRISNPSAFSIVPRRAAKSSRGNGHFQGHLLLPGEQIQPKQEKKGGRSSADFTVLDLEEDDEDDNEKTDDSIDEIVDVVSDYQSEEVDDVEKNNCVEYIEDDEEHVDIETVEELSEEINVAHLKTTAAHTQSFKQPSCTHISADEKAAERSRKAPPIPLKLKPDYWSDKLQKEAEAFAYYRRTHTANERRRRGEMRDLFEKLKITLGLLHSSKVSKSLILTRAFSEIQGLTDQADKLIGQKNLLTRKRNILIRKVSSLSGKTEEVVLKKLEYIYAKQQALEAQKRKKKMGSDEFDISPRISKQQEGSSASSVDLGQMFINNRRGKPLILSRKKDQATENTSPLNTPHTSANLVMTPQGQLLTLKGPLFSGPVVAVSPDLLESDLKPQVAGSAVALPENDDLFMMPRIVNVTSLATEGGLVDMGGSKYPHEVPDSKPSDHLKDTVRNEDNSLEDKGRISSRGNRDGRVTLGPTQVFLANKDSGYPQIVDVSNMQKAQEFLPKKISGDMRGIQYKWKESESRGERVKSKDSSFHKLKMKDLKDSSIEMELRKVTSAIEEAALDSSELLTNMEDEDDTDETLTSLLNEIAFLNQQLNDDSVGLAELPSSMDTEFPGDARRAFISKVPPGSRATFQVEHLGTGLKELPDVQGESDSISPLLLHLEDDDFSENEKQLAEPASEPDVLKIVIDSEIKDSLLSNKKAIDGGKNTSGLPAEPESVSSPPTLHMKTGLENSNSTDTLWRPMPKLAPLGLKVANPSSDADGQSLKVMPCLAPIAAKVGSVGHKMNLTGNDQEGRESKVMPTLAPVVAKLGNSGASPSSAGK
T9 sequence (P23528 whole entry): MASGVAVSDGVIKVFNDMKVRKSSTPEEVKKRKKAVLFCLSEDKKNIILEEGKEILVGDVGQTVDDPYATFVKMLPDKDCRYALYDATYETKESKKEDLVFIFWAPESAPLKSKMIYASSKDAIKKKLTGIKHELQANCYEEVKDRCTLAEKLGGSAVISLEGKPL

In the case of “i53-DM: 53BP1-binding deficient mutant of i53 (P69L, L70V)”, in the assay with ARFGAP2, the “Total peptides, ARFGAP2” value came to 3. In addition, the “Total peptides, HIST2H2BE” value with HIST2H2BE came out at 3. Also, the “Total peptides, RERGL” value with RERGL is listed as 2. In the assay with MGA, the “Total peptides, MGA” value was found to be 2.
As for “i53: UbvG08 with C-terminal di-glycine removed and I44A mutation; genetically encoded inhibitor of 53BP1”, in the assay with NAP1L1, the “Total peptides, NAP1L1” value turned out to be 4. Moreover, in the assay with CAPZA2, the “Total peptides, CAPZA2” value is on record as 7. Moreover, the “Total peptides, HIST1H2BG” value with HIST1H2BG is on record as 4. Further, the “53BP1 recruitment to DSB sites (ionizing radiation focus formation)” value in assay [1] is listed as “strongly suppressed 53BP1 recruitment to DSB sites”. Moreover, the “Total peptides, CFL1” value in the assay with CFL1 is on record as 6. In the assay with 53BP1, the “Retrieval of 53BP1 in co-immunoprecipitation” value is “efficiently retrieved 53BP1”.
